Target: the molecule itself
Test: non-reducing SDS-PAGE; 3 µg HpHtrA preincubated in 50 mM HEPES pH 7.5 without or with increasing concentrations of CaCl2; sample buffer without β-mercaptoethanol; Coomassie-stained

B1: recombinant HtrA (high temperature requirement A) from H. pylori strain 26695, wildtype (enzyme)
chain: GNIQIQSMPKVKERVSVPSKDDTIYSYHDSIKDSIKAVVNISTEKKIKNNFIGGGVFNDPFFQQFFGDLGGMIPKERMERALGSGVIISKDGYIVTNNHVIDGADKIKVTIPGSNKEYSATLVGTDSESDLAVIRITKDNLPTIKFSDSNDISVGDLVFAIGNPFGVGESVTQGIVSALNKSGIGINSYENFIQTDASINPGNSGGALIDSRGGLVGINTAIISKTGGNHGIGFAIPSNMVKDTVTQLIKTGKIERGYLGVGLQDLSGDLQNSYDNKEGAVVISVEKDSPAKKAGILVWDLITEVNGKKVKNTNELRNLIGSMLPNQRVTLKVIRDKKERAFTLTLAERKNPNKKETISAQNGAQGQLNGLQVEDLTQETKRSMRLSDDVQGVLVSQVNENSPAEQAGFRQGNIITKIEEVEVKSVADFNHALEKYKGKPKRFLVLDLNQGYRIILVK
notes: also called HpHtrA; H. pylori HtrA; source: E. coli BL21, purified (GSH-Sepharose, GST-tag removed with PreScission protease, dialyzed against 50 mM Tris pH 7.5)
  binding result: binds

— paper PMC4895972, “Calcium binding protects E-cadherin from cleavage by Helicobacter pylori HtrA” (Gut Pathogens, 2016)
